Biological target: Rhs2 C-terminal toxin domain (Rhs2CT), His6 tag removed, as in the Rhs2CT-RhsI2-EF-Tu complex (Serratia marcescens Db10)
Experiment: SEC

Substance | stoichiometry N
E. coli elongation factor thermo-unstable (EF-Tu) (from UniProt P0CE47 1-394) (natural protein) | 1
RhsI2 immunity protein, untagged (natural protein) | 1
